Tests used:
GST-human NOGO-A56 [1] = biological target: T1, GST-human NOGO-A56 (human); experiment: SPR (Biacore) off-rate on NOGO chip, panel of H6FL CDR H3 variants with L13FL
T1 construct: Expressed in E. coli BL21 from pGEX-6P1 and purified on glutathione-sepharose; the GST tag is part of the protein in the assays; also called GST-Nogo-A 5+6; GST Nogo-A 5 + 6

GST-human NOGO-A56 [2] = biological target: T1, GST-human NOGO-A56; experiment: direct ELISA on NOGO (GST-human NOGO-A56), CDR H3 variant of H6FL with L13FL, Abs490; coating concentration not given

T1 sequence (chain, as listed by the source limits assumed): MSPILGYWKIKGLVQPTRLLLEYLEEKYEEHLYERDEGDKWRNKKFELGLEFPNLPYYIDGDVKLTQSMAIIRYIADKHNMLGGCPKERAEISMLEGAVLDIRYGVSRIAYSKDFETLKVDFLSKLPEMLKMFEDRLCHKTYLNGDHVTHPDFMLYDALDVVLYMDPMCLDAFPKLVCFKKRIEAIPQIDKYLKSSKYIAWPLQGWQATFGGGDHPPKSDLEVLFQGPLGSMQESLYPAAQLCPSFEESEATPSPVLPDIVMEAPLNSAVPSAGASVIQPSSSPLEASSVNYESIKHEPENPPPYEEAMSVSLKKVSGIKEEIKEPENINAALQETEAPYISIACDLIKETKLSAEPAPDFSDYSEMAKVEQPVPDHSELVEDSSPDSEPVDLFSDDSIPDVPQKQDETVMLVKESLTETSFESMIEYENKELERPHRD

koff (GST-human NOGO-A56 [1]): 0.0198 s⁻¹ | EC50 (read off the curve) (GST-human NOGO-A56 [2]): ~0.1 µg/mL
B1: H6L13 variant with VH CDR3 WQGY (antibody, human IgG1, kappa, V domains shown)
VH: QVQLVQSGAEVKKPGASVKVSCKASGYTFTSYWMHWVRQAPGQGLEWIGNINPSNGGTNYNEKFKSRATMTRDTSTSTAYMELSSLRSEDTAVYYCELWQGYWGQGTLVTVSS
VL: DIVMTQSPLSLPVTLGQPASISCRSSKSLLYKDGKTYLNWFQQRPGQSPQLLIYLMSTRASGVPDRFSGGGSGTDFTLKISRVEAEDVGVYYCQQLVEYPLTFGQGTKLEIKR
notes: Single point variant of H6FL with L13FL

Reference: patent US20130287781A1 (GlaxoSmithKline, published 2013)
